Target: TNF-α (UniProt P01375)
Assay: cell-based or functional assay

Sequence of recombinant human TNFR:Fc fusion protein (TNFR-II:Fc), protein A purified, not HIC-fractionated (chain): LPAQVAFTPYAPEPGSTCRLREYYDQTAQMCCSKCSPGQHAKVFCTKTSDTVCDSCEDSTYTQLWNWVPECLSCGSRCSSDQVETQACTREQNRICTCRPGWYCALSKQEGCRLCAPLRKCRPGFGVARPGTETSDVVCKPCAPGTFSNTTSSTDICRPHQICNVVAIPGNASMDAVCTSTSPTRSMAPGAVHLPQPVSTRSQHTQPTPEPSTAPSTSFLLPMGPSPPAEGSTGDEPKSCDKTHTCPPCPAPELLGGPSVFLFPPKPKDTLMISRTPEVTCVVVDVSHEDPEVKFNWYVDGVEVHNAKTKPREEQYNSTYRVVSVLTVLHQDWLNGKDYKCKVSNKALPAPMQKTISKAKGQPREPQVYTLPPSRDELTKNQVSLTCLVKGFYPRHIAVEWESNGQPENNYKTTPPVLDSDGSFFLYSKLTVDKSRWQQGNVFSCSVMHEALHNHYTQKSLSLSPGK
Sequence of UniProt P01375 (P01375 77-233 limits assumed): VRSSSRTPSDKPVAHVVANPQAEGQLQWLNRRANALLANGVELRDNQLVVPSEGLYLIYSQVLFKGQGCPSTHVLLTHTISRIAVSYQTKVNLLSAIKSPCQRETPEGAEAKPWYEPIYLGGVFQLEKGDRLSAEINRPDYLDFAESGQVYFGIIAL

bioactivity (A375 assay; HIC with sodium acetate gradient) | Bioassay 10^6 units/mg (n = 2); VA12 cells, production at 28° C., IGF-1 | Bioassay 10^6 units/mg (n = 2); VA12 cells, production at 32° C., IGF-1 | Bioassay 10^6 units/mg (n = 2); VA12 cells, production at 34° C., IGF-1 | Bioassay 10^6 units/mg (n = 2); VA12 cells, production at 37° C., IGF-1 | Substance | bioactivity (A375 cell killing neutralisation assay), compared to unfractionated material
2.71e+06 U/mg | – | – | – | – | TNFR:Fc, HIC peak 2 fraction (Fc fusion) | 117%
< 340000 U/mg | – | – | – | – | TNFR:Fc, HIC peak 3 fraction (Fc fusion) | 11%
– | 2.07e+06 units/mg | 1.62e+06 units/mg | 950000 units/mg | 490000 units/mg | recombinant human TNFR:Fc fusion protein (TNFR-II:Fc), protein A purified, not HIC-fractionated | –

Source: patent publication US7294481
